This is an account of results in patent US8440804B2, “Polypeptides having modulatory effects on cells” (Ecole Normale Superieure de Lyon, priority 2006, dated 2013).

Experiment [1] addresses T1, NS5A-TP2 (Homo sapiens, UniProt Q7Z4H3).
T1 construct: expressed in transfected cells; host or cells: yeast
T1 sequence (Q7Z4H3 1-204): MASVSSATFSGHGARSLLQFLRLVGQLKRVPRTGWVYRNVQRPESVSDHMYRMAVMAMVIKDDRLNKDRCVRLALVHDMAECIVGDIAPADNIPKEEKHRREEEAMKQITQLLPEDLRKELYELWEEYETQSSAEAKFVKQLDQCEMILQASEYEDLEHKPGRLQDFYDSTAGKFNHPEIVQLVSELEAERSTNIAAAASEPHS
The experiment is described as follows: Further yeast two-hybrid binding assays (higher sensitivity). From the text:
FIG. 14. Specificity of aptamers according to the invention for CNA and NS5A-TP2 Interaction matrix between peptide aptamers R5G42, C2, C7, C8, N9, R5G44 and R5G52 with CNA constructs CNA1-CNA8 (A) CNA9-11 (B) and NS5A-TP2 (C). An interaction phenotype between CNA3/CNA 11, which both contain the Calmodulin binding domain (CaM) and the auto-inhibitory domain (Al) but not the CNB binding domain (CNB) and the aptamers R5G42, C2, C7, C8 and N9 is observed in a two-hybrid assay. R5G44 and R5G52 aptamers recognize neither the CNA fragments, nor NS5A-TP2. Only aptamers R5G42 and N9 recognize NS5A-TP2.
The inventors proceeded to further yeast two-hybrid binding assays between peptide aptamers R5G42 (SEQ ID 22), C2 (SEQ ID 23), C7 (SEQ ID 27), C8 (SEQ ID 28), N9 (SEQ ID 33), R5G44 and R5G52 with CNA constructs CNA1-CNA8 (FIG. 14A), CNA9-CNA11 (FIG. 14B) and NS5A-TP2 (SEQ ID 15) (FIG. 14C). The sensitivity of this yeast two-hybrid assay was higher than in the experiment reported above.

The target of experiment [2] is T2, CNA beta C-terminal fragment (Homo sapiens, UniProt P16298).
T2 construct: expressed in transfected cells; host or cells: yeast (MB210a transformed with library plasmid, mated with bait strain)
As to the kind of experiment: Yeast two-hybrid assays of R5G42 mutants. It is filed as binding. As to conditions: plasmids pSH18-34, pJK103, pRB18-40. The procedure:
(§1) The capacity of R5G42 mutants having a one amino acid change as compared to R5G42 to bind CNA beta and gamma C-Terminal fragments (FIG. 3b) and NS5A-TP2 was tested in yeast two-hybrid assays. CNA beta and gamma C-Terminal fragments and NS5A-TP2 were cloned in three different vectors (pSH18-34, pJK103 and pRB18-40). These three plasmids differ from each other in the level of sensitivity of their promoter, pSH18-34 having the highest sensitivity and pRB18-40 having the lowest.
(§2) The inventors explored the ability of R5G42 mutants having a one amino acid change as compared to R5G42, to bind to CNA beta and gamma C-Terminal fragments (FIG. 3b) and to NS5A-TP2. To this end, they proceeded to yeast-two hybrid assays as in example 3. CNA beta and gamma C-Terminal fragments (FIG. 3b) and NS5A-TP2 were cloned in three different plasmids (pSH18-34, pJK103 and pRB18-40), which differed from each other in the level of sensitivity of their promoter to the bait/prey complex formation, pSH18-34 having the highest sensitivity and pRB18-40 having the lowest.

Experiment [3] addresses T1, NS5A-TP2. The experiment is described as follows: Yeast two-hybrid assays of R5G42 mutants. It is filed as binding. As to conditions: plasmids pSH18-34, pJK103, pRB18-40. As to the method:
as §1, §2

Experiment [4] has as its system CNA gamma C-terminal fragment. As to the kind of experiment: Yeast two-hybrid assays of R5G42 mutants. It is filed as binding, human. As to conditions: plasmids pSH18-34, pJK103, pRB18-40. As to the method:
as §1, §2

For experiment [5], the system named is Raw1 cells (osteoclasts precursors). The experiment is described as follows: Raw cell differentiation assay (osteoclast differentiation). As to conditions: 4 days post-transfection, absence of RANKL. It is filed as cell-based. The text has this:
Trx, CNA* and Peptide aptamers R5G42, C2, C7, C8 and N9 were transfected into RAW1 cells and left for four days in absence of the normal differentiation factor RANKL. CNA* is activated calcineurin A which elicits a robust differentiation response.
The inventors assessed the ability of some CNA-specific peptide aptamers to promote osteoclast differentiation via the activation of CNA. […] The differentiation state was then observed 4 days post-transfection.
Raw1 cells were transfected with the following plasmids: pCI-HA-Trx (negative control), pCI-HA CNA* (positive control for differentiation activation), pCI-HA R5G42, pCI-HA R5G42-C2, pCI-HA R5G42-C7, pCI-HA R5G42-C8 and pCI-HA R5G42-N9. The sequence of CNA* is the same as that of CNA8 (see FIG. 17, SEQ ID 42). The sequences of the R5G42 (SEQ ID 22), C2 (SEQ ID 23), C7 (SEQ ID 27), C8 (SEQ ID 28) and N9 (SEQ ID 33) aptamers is shown on FIG. 8.
One day before the transfection, Raw I cells were plated in 6-well dishes at 50 cell/mm^2. Transfection was performed with FuGene 6 Reagent (Roche) using 2 μg of each plasmid and following supplier recommendations.
8 h after transfection D-MEM was changed with α-MEM. In the control dishes α-MEM+50 ng/ml RANKL was added. After 2 days, medium was changed with a fresh medium. The differentiation state was then observed 4 days post-transfection.

Chain of CNA gamma C-terminal fragment (P48454 386-512 limits assumed): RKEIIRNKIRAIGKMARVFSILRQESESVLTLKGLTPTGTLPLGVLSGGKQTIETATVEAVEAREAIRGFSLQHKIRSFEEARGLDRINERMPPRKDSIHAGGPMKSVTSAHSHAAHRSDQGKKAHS

B1: N9: R5G42 mutant having a one amino acid change (SEQ ID 33) (protein)
chain: MVKQIESKTAFQEALDAAGDKLVVVDFSAAWCGPSAVTFAVCALGPCKMIKPFFHSLSEKYSNVIFLEVDVDDCQDVASECEVKCMPTFQFFKKGQKVGEFSGANKEKLEATINELV
modifications: Aptamer R5G42 mutant N9
As for B1, the “recognition of NS5A-TP2” value in the experiment with NS5A-TP2 [1] was “recognized NS5A-TP2”. The yeast two-hybrid interaction entry in experiment [2] was “not with the CNA beta and gamma C-terminal fragments”; in the experiment with NS5A-TP2 [3], “shown to interact with NS5A-TP2”; in experiment [4] it was “not with the CNA beta and gamma C-terminal fragments”. Also, the osteoclast differentiation entry in experiment [5] is “no osteoclasts fully differentiated were detectable”.
